± gives the uncertainty stated by the source.
B1: CD2-associated protein, residues 1 to 59; numbered along this chain, Q9Y5K6 (parent)
chain: MVDYIVEYDYDAVHDDELTIRVGEIIRNVKKLQEEGWLEGELNGRRGMFPDNFVKEIKR

Variants of: B1
Assay: abundance fitness (aPCA) (normalised: wild type 0, dead -1); higher = more abundant; growth selection in yeast, the domain comes from the species named
Conditions: Homo sapiens

In order of falling abundance fitness:
1. MMDYIVEYDYDAVHDDELTIRVGEIIRNVKKLQEEGWLEGELNGRRGMFPDNFVKEIKR [V2M]  0.087 ± 0.12
2. MKDYIVEYDYDAVHDDELTIRVGEIIRNVKKLQEEGWLEGELNGRRGMFPDNFVKEIKR [V2K]  0.086 ± 0.093
3. MNDYIVEYDYDAVHDDELTIRVGEIIRNVKKLQEEGWLEGELNGRRGMFPDNFVKEIKR [V2N]  0.064 ± 0.27
4. MIDYIVEYDYDAVHDDELTIRVGEIIRNVKKLQEEGWLEGELNGRRGMFPDNFVKEIKR [V2I]  0.054 ± 0.16
5. MVDYQVEYDYDAVHDDELTIRVGEIIRNVKKLQEEGWLEGELNGRRGMFPDNFVKEIKR [I5Q]  0.037 ± 0.18
6. MFDYIVEYDYDAVHDDELTIRVGEIIRNVKKLQEEGWLEGELNGRRGMFPDNFVKEIKR [V2F]  0.008 ± 0.14
7. MVDYMVEYDYDAVHDDELTIRVGEIIRNVKKLQEEGWLEGELNGRRGMFPDNFVKEIKR [I5M]  0 ± 0.14
8. MSDYIVEYDYDAVHDDELTIRVGEIIRNVKKLQEEGWLEGELNGRRGMFPDNFVKEIKR [V2S]  -0.029 ± 0.15
9. MEDYIVEYDYDAVHDDELTIRVGEIIRNVKKLQEEGWLEGELNGRRGMFPDNFVKEIKR [V2E]  -0.031 ± 0.096
10. MVDVIVEYDYDAVHDDELTIRVGEIIRNVKKLQEEGWLEGELNGRRGMFPDNFVKEIKR [Y4V]  -0.042 ± 0.13
11. MCDYIVEYDYDAVHDDELTIRVGEIIRNVKKLQEEGWLEGELNGRRGMFPDNFVKEIKR [V2C]  -0.062 ± 0.12
12. MADYIVEYDYDAVHDDELTIRVGEIIRNVKKLQEEGWLEGELNGRRGMFPDNFVKEIKR [V2A]  -0.074 ± 0.071
13. MRDYIVEYDYDAVHDDELTIRVGEIIRNVKKLQEEGWLEGELNGRRGMFPDNFVKEIKR [V2R]  -0.084 ± 0.099
14. MVDMIVEYDYDAVHDDELTIRVGEIIRNVKKLQEEGWLEGELNGRRGMFPDNFVKEIKR [Y4M]  -0.086 ± 0.13
15. MLDYIVEYDYDAVHDDELTIRVGEIIRNVKKLQEEGWLEGELNGRRGMFPDNFVKEIKR [V2L]  -0.087 ± 0.074
16. MTDYIVEYDYDAVHDDELTIRVGEIIRNVKKLQEEGWLEGELNGRRGMFPDNFVKEIKR [V2T]  -0.095 ± 0.2
17. MVDYVVEYDYDAVHDDELTIRVGEIIRNVKKLQEEGWLEGELNGRRGMFPDNFVKEIKR [I5V]  -0.097 ± 0.075
18. MVDYLVEYDYDAVHDDELTIRVGEIIRNVKKLQEEGWLEGELNGRRGMFPDNFVKEIKR [I5L]  -0.105 ± 0.1
19. MDDYIVEYDYDAVHDDELTIRVGEIIRNVKKLQEEGWLEGELNGRRGMFPDNFVKEIKR [V2D]  -0.119 ± 0.22
20. MVDYRVEYDYDAVHDDELTIRVGEIIRNVKKLQEEGWLEGELNGRRGMFPDNFVKEIKR [I5R]  -0.128 ± 0.12
21. MVDTIVEYDYDAVHDDELTIRVGEIIRNVKKLQEEGWLEGELNGRRGMFPDNFVKEIKR [Y4T]  -0.136 ± 0.12
22. MWDYIVEYDYDAVHDDELTIRVGEIIRNVKKLQEEGWLEGELNGRRGMFPDNFVKEIKR [V2W]  -0.138 ± 0.2
23. MVDWIVEYDYDAVHDDELTIRVGEIIRNVKKLQEEGWLEGELNGRRGMFPDNFVKEIKR [Y4W]  -0.166 ± 0.098
24. MYDYIVEYDYDAVHDDELTIRVGEIIRNVKKLQEEGWLEGELNGRRGMFPDNFVKEIKR [V2Y]  -0.166 ± 0.22
25. MVDCIVEYDYDAVHDDELTIRVGEIIRNVKKLQEEGWLEGELNGRRGMFPDNFVKEIKR [Y4C]  -0.173 ± 0.14
26. MQDYIVEYDYDAVHDDELTIRVGEIIRNVKKLQEEGWLEGELNGRRGMFPDNFVKEIKR [V2Q]  -0.224 ± 0.18
27. MVDAIVEYDYDAVHDDELTIRVGEIIRNVKKLQEEGWLEGELNGRRGMFPDNFVKEIKR [Y4A]  -0.254 ± 0.15
28. MVDYEVEYDYDAVHDDELTIRVGEIIRNVKKLQEEGWLEGELNGRRGMFPDNFVKEIKR [I5E]  -0.267 ± 0.18
29. MVDYSVEYDYDAVHDDELTIRVGEIIRNVKKLQEEGWLEGELNGRRGMFPDNFVKEIKR [I5S]  -0.317 ± 0.1
30. MVDYTVEYDYDAVHDDELTIRVGEIIRNVKKLQEEGWLEGELNGRRGMFPDNFVKEIKR [I5T]  -0.335 ± 0.14
31. MVDYCVEYDYDAVHDDELTIRVGEIIRNVKKLQEEGWLEGELNGRRGMFPDNFVKEIKR [I5C]  -0.343 ± 0.21
32. MVDRIVEYDYDAVHDDELTIRVGEIIRNVKKLQEEGWLEGELNGRRGMFPDNFVKEIKR [Y4R]  -0.404 ± 0.091
33. MVDLIVEYDYDAVHDDELTIRVGEIIRNVKKLQEEGWLEGELNGRRGMFPDNFVKEIKR [Y4L]  -0.476 ± 0.11
34. MVDKIVEYDYDAVHDDELTIRVGEIIRNVKKLQEEGWLEGELNGRRGMFPDNFVKEIKR [Y4K]  -0.486 ± 0.15
35. MHDYIVEYDYDAVHDDELTIRVGEIIRNVKKLQEEGWLEGELNGRRGMFPDNFVKEIKR [V2H]  -0.486 ± 0.21
36. MVDYAVEYDYDAVHDDELTIRVGEIIRNVKKLQEEGWLEGELNGRRGMFPDNFVKEIKR [I5A]  -0.544 ± 0.17
37. MVDHIVEYDYDAVHDDELTIRVGEIIRNVKKLQEEGWLEGELNGRRGMFPDNFVKEIKR [Y4H]  -0.554 ± 0.21
38. MVDYDVEYDYDAVHDDELTIRVGEIIRNVKKLQEEGWLEGELNGRRGMFPDNFVKEIKR [I5D]  -0.556 ± 0.32
39. MVDYNVEYDYDAVHDDELTIRVGEIIRNVKKLQEEGWLEGELNGRRGMFPDNFVKEIKR [I5N]  -0.681 ± 0.36
40. MVDQIVEYDYDAVHDDELTIRVGEIIRNVKKLQEEGWLEGELNGRRGMFPDNFVKEIKR [Y4Q]  -0.687 ± 0.39
41. MVDYGVEYDYDAVHDDELTIRVGEIIRNVKKLQEEGWLEGELNGRRGMFPDNFVKEIKR [I5G]  -0.704 ± 0.16
42. MVDDIVEYDYDAVHDDELTIRVGEIIRNVKKLQEEGWLEGELNGRRGMFPDNFVKEIKR [Y4D]  -0.826 ± 0.26
43. MVDIIVEYDYDAVHDDELTIRVGEIIRNVKKLQEEGWLEGELNGRRGMFPDNFVKEIKR [Y4I]  -0.844 ± 0.28
44. MVDPIVEYDYDAVHDDELTIRVGEIIRNVKKLQEEGWLEGELNGRRGMFPDNFVKEIKR [Y4P]  -0.863 ± 0.35
45. MVDYPVEYDYDAVHDDELTIRVGEIIRNVKKLQEEGWLEGELNGRRGMFPDNFVKEIKR [I5P]  -0.979 ± 0.41

— the Human Domainome abundance scans (Beltran et al. 2025)
